Data taken from paper PMC4027171.

Target: human EME2 (His-EME2) (human)
Assay: co-purification of co-expressed subunits

human EME2 (His-EME2) (human), sequence (A4GXA9 whole entry): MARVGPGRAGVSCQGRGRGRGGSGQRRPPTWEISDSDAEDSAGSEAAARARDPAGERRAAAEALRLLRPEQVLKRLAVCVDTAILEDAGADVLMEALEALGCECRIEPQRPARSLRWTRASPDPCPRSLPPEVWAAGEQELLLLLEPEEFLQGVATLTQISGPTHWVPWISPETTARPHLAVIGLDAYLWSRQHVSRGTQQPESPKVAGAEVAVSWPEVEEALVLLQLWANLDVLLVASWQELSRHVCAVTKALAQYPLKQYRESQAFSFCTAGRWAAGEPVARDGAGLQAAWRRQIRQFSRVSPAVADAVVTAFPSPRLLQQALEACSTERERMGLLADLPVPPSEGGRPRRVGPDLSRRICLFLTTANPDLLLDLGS

B1: human MUS81 (enzyme)
chain: MAAPVRLGRKRPLPACPNPLFVRWLTEWRDEATRSRRRTRFVFQKALRSLRRYPLPLRSGKEAKILQHFGDGLCRMLDERLQRHRTSGGDHAPDSPSGENSPAPQGRLAEVQDSSMPVPAQPKAGGSGSYWPARHSGARVILLVLYREHLNPNGHHFLTKEELLQRCAQKSPRVAPGSARPWPALRSLLHRNLVLRTHQPARYSLTPEGLELAQKLAESEGLSLLNVGIGPKEPPGEETAVPGAASAELASEAGVQQQPLELRPGEYRVLLCVDIGETRGGGHRPELLRELQRLHVTHTVRKLHVGDFVWVAQETNPRDPANPGELVLDHIVERKRLDDLCSSIIDGRFREQKFRLKRCGLERRVYLVEEHGSVHNLSLPESTLLQAVTNTQVIDGFFVKRTADIKESAAYLALLTRGLQRLYQGHTLRSRPWGTPGNPESGAMTSPNPLCSLLTFSDFNAGAIKNKAQSVREVFARQLMQVRGVSGEKAAALVDRYSTPASLLAAYDACATPKEQETLLSTIKCGRLQRNLGPALSRTLSQLYCSYGPLT
  stoichiometry N: 1
